B1: VEGFR2-Fc (Met1-Glu764) (Fc fusion)
chain: ASVGLPSVSLDLPRLSIQKDILTIKANTTLQITCRGQRDLDWLWPNNQSGSEQRVEVTECSDGLFCKTLTIPKVIGNDTGAYKCFYRETDLASVIYVYVQDYRSPFIASVSDQHGVVYITENKNKTVVIPCLGSISNLNVSLCARYPEKRFVPDGNRISWDSKKGFTIPSYMISYAGMVFCEAKINDESYQSIMYIVVVVGYRIYDVVLSPSHGIELSVGEKLVLNCTARTELNVGIDFNWEYPSSKHQHKKLVNRDLKTQSGSEMKKFLSTLTIDGVTRSDQGLYTCAASSGLMTKKNSTFVRVHEKPFVAFGSGMESLVEATVGERVRIPAKYLGYPPPEIKWYKNGIPLESNHTIKAGHVLTIMEVSERDTGNYTVILTNPISKEKQSHVVSLVVYVPPQIGEKSLISPVDSYQYGTTQTLTCTVYAIPPPHHIHWYWQLEEECANEPSQAVSVTNPYPCEEWRSVEDFQGGNKIEVNKNQFALIEGKNKTVSTLVIQAANVSALYKCEAVNKVGRGERVISFHVTRGPEITLQPDMQPTEQESVSLWCTADRSTFENLTWYKLGPQPLPIHVGELPTPVCKNLDTLWKLNATMFSNSTNDILIMELKNASLQDQGDYVCLAQDRKTKKRHCVVRQLTVLERVAPTITGNLENQTTSIGESIEVSCTASGNPPPQIMWFKDNETLVEDSGIVLKDGNRNLTIRRVRKEDEGLYTCQACSVLGCAKVEAFFIIEGAQEKTNLE
notes: also called VEGFR2-Fc with the full extracellular domain; Full VEGFR2 extracellular domain; not shown: Fc part
B2: VEGF-D (ligand, UniProt O43915 89-205, looked up)
chain: FAATFYDIETLKVIDEEWQRTQCSPRETCVEVASELGKSTNTFFKPPCVNVFRCGGCCNEESLICMNTSTSYISKQLFEISVPLTSVPELVPVKVANHTGCKCLPTAPRHPYSIIRR
notes: Bought reagent
B3: VEGF-C (ligand, UniProt P49767 112-227, looked up)
chain: AHYNTEILKSIDNEWRKTQCMPREVCIDVGKEFGVATNTFFKPPCVSVYRCGGCCNSEGLQCMNTSTSYLSKTLFEITVPLSQGPKPVTISFANHTSCRCMSKLDVYRQVHSIIRR
notes: Bought reagent

Experiments:
VEGF-D [1] = molecular target: B2; assay: blocking ELISA: His-VEGF-D premixed with sample, binding to coated VEGFR3-Fc read with anti-His-HRP
Description: (§1) During the blocking period, each recombinant receptor molecule was serially diluted from high to low concentrations, mixed evenly with 10 ng/well of VEGF-C or 500 ng/well of VEGF-D (both labeled with His-tag), allowing for incubation at room temperature for 30 minutes. […] The plates were washed with PBST, then TMB was added for color development, terminated with 5% hydrochloric acid solution, and finally, the OD values at 450 nm were read using a microplate reader.

VEGF-D [2] = molecular target: B2; assay: as above; remark: listed apart in the source
Description: as §1

VEGF-D [3] = molecular target: B2; assay: blocking ELISA: His-VEGF-D premixed with sample, binding to coated VEGFR2-Fc read with anti-His-HRP
Description: as §1, with “100” for “10”, “or” for “or 500 ng/well of”, “then anti-polyhistidine secondary antibody conjugated with horseradish peroxidase was added to allow for incubation and binding at room temperature for 1 hour. Then the plates were washed with PBST,” for “then”

VEGF-C = molecular target: B3; assay: ELISA binding to VEGF-C, absorbance 450 nm
Description: VEGF-A165, VEGF-C and VEGF-D polypeptide molecules were purchased from ACROBiosystems Inc. VEGF molecules at 100-300 ng/well prepared in PBS were used for coating overnight at 4° C., the next day, the plates were washed with PBS, and 1% BSA solution was added to block for 2 hours at room temperature, after which the plates were washed again with PBS. […] Goat anti-human Fc secondary antibody conjugated with horseradish peroxidase diluted in PBT was added, followed by incubation at room temperature and 300 rpm for 1 hour, after that, the plates were washed three times with PBST solution. Then TMB was added for color development, terminated with 5% hydrochloric acid solution, and finally, the OD values at 450 nm were read using a microplate reader.

VEGF-D [4] = molecular target: B2; assay: blocking ELISA: His-VEGF-D premixed with sample, binding to coated VEGFR2-Fc read with anti-His-HRP; remark: listed apart in the source
Description: as §1, with “100” for “10”, “or” for “or 500 ng/well of”, “then anti-polyhistidine secondary antibody conjugated with horseradish peroxidase was added to allow for incubation and binding at room temperature for 1 hour. Then the plates were washed with PBST,” for “then”

VEGFR2-Fc (Met1-Glu764) [5] = molecular target: B1; assay: SPR, PDGF coupled to CM5 chip, VEGFR2-Fc in flow; row label printed PDGF-BR
Source text: Nevertheless, it was found in the preliminary detection experiments that PDGF family molecules (purchased from R&D Systems Inc.) were prone to produce non-specific binding in the chip, resulting in a pseudo-elevation in measured values, such that the detection could not be completed. Therefore, PDGF-AA, PDGF-AB, PDGF-BB and PDGF-CC molecules were separately loaded through a coupling reaction on a CM5 chip, followed by influx of the recombinant receptor molecules, thus effectively eliminating the impact of non-specific binding on affinity determination.

VEGFR2-Fc (Met1-Glu764) [6] = molecular target: B1; assay: SPR Biacore T200 (Example 8)

Binder	Kd (VEGFR2-Fc (Met1-Glu764) [6]) [nM]	koff (VEGFR2-Fc (Met1-Glu764) [6]) [s⁻¹]	kon (VEGFR2-Fc (Met1-Glu764) [6]) [M⁻¹ s⁻¹]	further results
B1	–	–	–	EC50 (VEGF-D [1]): 33.4 nM; EC50 (VEGF-D [2]): 33.4 nM; EC50 (VEGF-D [3]): 31.5 nM; EC50 (VEGF-C): 269 nM; EC50 (VEGF-D [4]): 31.5 nM
PDGF-BB (ligand, UniProt P01127 82-190, looked up, Bought reagent) SLGSLTIAEPAMIAECKTRTEVFEISRRLIDRTNANFLVWPPCVEVQRCSGCCNNRNVQCRPTQVQLRPVQVRKIEIVRKKPIFKKATVTLEDHLACKCETVAAARPVT	–	–	–	Kd (VEGFR2-Fc (Met1-Glu764) [5]): 14.1 nM
B2	21	0.000673	32100	–
B3	16.7	0.000452	27100	–

From US20250002557A1 (SUZHOU LIGHT FERRY BIOMED, published 2025)
